Test [1] deals with fluorescein-labelled PMCA peptide (Bos taurus (Bovine), UniProt D3K0R6, fluorescein attached to the C-terminal native Lys). Description: fluorescence polarisation/anisotropy; Ca2+ (1 mM CaCl2). For orientation: In fluorescence polarisation assays a small probe gives low polarisation when free and higher when bound to something large.
In test [2] the target is fluorescein-labelled CaMKII peptide (Homo sapiens (Human), UniProt Q9UQM7, fluorescein attached to the non-native cysteine added to the N-terminus). The test is described as above.
Sequence of fluorescein-labelled CaMKII peptide (Q9UQM7 other isoform, or with tags, fused parts or gaps): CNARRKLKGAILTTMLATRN

Sequence of fluorescein-labelled PMCA peptide (D3K0R6 1086-1105): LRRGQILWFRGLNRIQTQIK

B1: His6-tagged human centrin1 (protein)
chain: MASGFKKPSAASTGQKRKVAPKPELTEDQKQEVREAFDLFDVDGSGTIDAKELKVAMRALGFEPRKEEMKKMISEVDREGTGKISFNDFLAVMTQKMSEKDTKEEILKAFRLFDDDETGKISFKNLKRVANELGENLTDEELQEMIDEADRDGDGEVNEEEFLRIMKKTSLY
On to B1, for which the binding result in test [1] and in test [2] was “no binding” throughout.

(Values after article PMC10296094 (2023).)
